{"source": "paper PMC3779476", "about": "(Nature, 2013)", "proteins": {"B1": {"name": "LamB (natural protein)", "chain": "VDFHGYARSGIGWTGSGGEQQCFQTTGAQSKYRLGNECETYAELKLGQEVWKEGDKSFYFDTNVAYSVAQQNDWEATDPAFREANVQGKNLIEWLPGSTIWAGKRFYQRHDVHMIDFYYWDISGPGAGLENIDVGFGKLSLAATRSSEAGGSSSFASNNIYDYTNETANDVFDVRLAQMEINPGGTLELGVDYGRANLRDNYRLVDGASKDGWLFTAEHTQSVLKGFNKFVVQYATDSMTSQGKGLSQGSGVAFDNEKFAYNINNNGHMLRILDHGAISMGDNWDMMYVGMYQDINWDNDNGTKWWTVGIRPMYKWTPIMSTVMEIGYDNVESQRTGDKNNQYKITLAQQWQAGDSIWSRPAIRVFATYAKWDEKWGYDYTGNADNNANFGKAVPADFNGGSFGRGDSDEWTFGAQMEIWW"}}, "biological_target": "the molecule itself", "assay": "native gel or EMSA", "data": [{"protein": "B1", "values": [{"measurement": "stoichiometry N", "value": 3}]}]}
